The results in this text go back to patent publication US20120195879A1.

Assay [1] concerns the target human Kv1.1 (human) (UniProt Q09470). Put plainly: cell-based or functional assay.
The target of assay [2] is human Kv1.3 (human) (UniProt P22001). Put plainly: cell-based or functional assay.
Sequence of human Kv1.3 (human) (P22001 whole entry): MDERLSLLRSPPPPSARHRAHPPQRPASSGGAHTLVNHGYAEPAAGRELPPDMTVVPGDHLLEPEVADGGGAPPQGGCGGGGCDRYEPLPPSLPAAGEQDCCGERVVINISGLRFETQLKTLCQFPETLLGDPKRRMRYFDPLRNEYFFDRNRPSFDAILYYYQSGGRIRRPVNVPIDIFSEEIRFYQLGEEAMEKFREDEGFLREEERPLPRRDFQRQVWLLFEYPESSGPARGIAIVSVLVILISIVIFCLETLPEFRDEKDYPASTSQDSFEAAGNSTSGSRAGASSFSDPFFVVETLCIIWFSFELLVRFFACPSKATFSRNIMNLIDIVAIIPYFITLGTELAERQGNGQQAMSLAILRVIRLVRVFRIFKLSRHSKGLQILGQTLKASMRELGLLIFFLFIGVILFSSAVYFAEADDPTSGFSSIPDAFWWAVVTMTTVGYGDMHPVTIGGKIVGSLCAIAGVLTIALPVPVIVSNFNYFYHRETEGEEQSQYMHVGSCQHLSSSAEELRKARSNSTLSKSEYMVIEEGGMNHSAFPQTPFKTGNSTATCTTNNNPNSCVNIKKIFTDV

Sequence of human Kv1.1 (human) (Q09470 whole entry): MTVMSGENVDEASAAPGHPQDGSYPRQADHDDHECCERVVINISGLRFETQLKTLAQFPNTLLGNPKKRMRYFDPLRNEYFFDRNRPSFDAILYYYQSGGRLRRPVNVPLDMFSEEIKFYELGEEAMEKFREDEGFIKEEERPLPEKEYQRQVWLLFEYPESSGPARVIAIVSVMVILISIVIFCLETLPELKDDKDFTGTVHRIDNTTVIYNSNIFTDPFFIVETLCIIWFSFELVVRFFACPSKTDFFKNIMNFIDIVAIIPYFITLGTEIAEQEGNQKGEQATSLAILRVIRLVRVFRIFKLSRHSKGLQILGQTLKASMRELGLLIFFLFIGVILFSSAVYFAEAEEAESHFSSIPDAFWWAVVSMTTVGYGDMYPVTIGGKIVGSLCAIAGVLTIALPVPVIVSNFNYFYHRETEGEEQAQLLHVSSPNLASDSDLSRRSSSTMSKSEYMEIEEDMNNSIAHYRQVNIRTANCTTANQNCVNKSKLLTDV

Take 20 kDa-PEG-ShK (peptide): in assay [1], the Kv1.1 (PX) IC50 amounted to 1.63 nM. Also, in assay [2], the Kv1.1/Kv1.3 Selectivity Ratio by PX is 5.44; the Kv1.3 (PX) IC50 was determined as 0.299 nM; the Potency Relative to ShK (WB, IL2) amounted to 5.67; the WB (IFNg) IC50 is 0.84 nM. Also, the WB (IL-2) IC50 in assay [2] was 0.38 nM.

“Monovalent Fc/Fc-L10-ShK[2-35] heterodimer (Fc fusion)”: the Potency Relative to ShK (WB, IL2) in assay [2] came to 32.1.
